US6670183

Columns and labels:
[1] = biological target: GP88 cell surface receptors on CCL64 mink lung epithelial cells (mink); experiment: Scatchard analysis, 125I-rGP88 on CCL64 cells; low affinity class of sites
[2] = biological target: GP88 cell surface receptors on CCL64 mink lung epithelial cells (mink); experiment: Scatchard analysis, 125I-rGP88 on CCL64 cells; high affinity class of sites
[3] = biological target: GP88 cell surface receptors on CCL64 mink lung epithelial cells (mink); experiment: Scatchard analysis, 125I-rGP88 displaced by cold rGP88 on CCL64 cells in suspension; low affinity class of sites
[4] = biological target: GP88 cell surface receptors on CCL64 mink lung epithelial cells (mink); experiment: Scatchard analysis, 125I-rGP88 displaced by cold rGP88 on CCL64 cells in suspension; high affinity class of sites

B1: recombinant GP88 (rGP88), mouse GP88 expressed in baculovirus infected Sf9 insect cells (ligand)
chain: TQCPDGQFCPVACCLDQGGANYSCCNPLLDTWPRITSHHLDGSCQTHGHCPAGYSCLLTVSGTSSCCPFSKGVSCGDGYHCCPQGFHCSADGKSCFQMSDNPLGAVQCPGSQFECPDSATCCIMVDGSWGCCPMPQASCCEDRVHCCPHGASCDLVHTRCVSPTGTHTLLKKFPAQKTNSAVSLPFSVVCPDAKTQCPDDSTCCELPTGKYGCCPMPNAICCSDHLHCCPQDTVCDLIQSKCLSKNYTTDLLTKLPGYPVKEVKCDMEVSCPEGYTCCRLNTGAWGCCPFAKAVCCDDHIHCCPAGFQCHTEKGTCEMGILQVGWMKKVIAPLRLPDPQILKSDTPCDDFTRCPTNNTCCKLNSGDWGCCPIPEAVCCSDNQHCCPQGFTCLAQGYCQKGDTMVAGLEKIPARQTTPLQIGDIGCDQHTSCPVGQTCCPSLKGSWACCQLPHAVCCEDRQHCCPAGYTCNVKARTCEKDVDFIQPPVLLTLGPKVGNVECGEGHFCHDNQTCCKDSAGVWACCPYLKGVCCRDGRHCCPGGFHCSARGTKCLRKKIPRWDMFLRDPVPRPLL
modifications: the labelled form is 125I-iodinated by the chloramine T method (residues not stated)
Work on B1 yielded a sites/cell [1] of 17000 sites/cell, a sites/cell [2] of 560 sites/cell and a Kd [3] of 3.9 nM. The Kd [4] was 0.043 nM.
